From patent publication US20050129695A1 (published 2005)

B1: anti-Aβ monoclonal antibody C701 (antibody, V domains shown)
VH: EGQLQQSGAELVRSGASLKLSCTASGFNIKDHYVHWVRQRPEQGLDWIGWIAPKNGYSESAPKFQGKASMTADTSSNTVYLQLSSLTSEDTAVYYCFAGFYDSSLYWGQGTTLTVSS
VL: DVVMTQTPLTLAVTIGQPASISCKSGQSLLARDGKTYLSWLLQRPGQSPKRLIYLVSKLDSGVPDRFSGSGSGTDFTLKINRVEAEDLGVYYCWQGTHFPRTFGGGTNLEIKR
notes: Tested as protein G purified IgG, detected with goat anti-mouse IgG; also called C701 mAb
B2: anti-Aβ monoclonal antibody C705 (antibody, V domains shown)
VH: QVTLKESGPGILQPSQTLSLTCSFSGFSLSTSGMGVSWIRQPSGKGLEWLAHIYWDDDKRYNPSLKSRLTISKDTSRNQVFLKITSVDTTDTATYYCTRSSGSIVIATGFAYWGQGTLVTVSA
VL: DVMMTQTPLSLPVSLGDQASISCRSSQSLVHSNGNTYLEWYMQKPGQSPMLLIYKVSNRFSGVPDRFSGSGSGTDFTLKISSVEAEDLGVFYCFQGSRVPLTFGAGTKLELKR
notes: Tested as protein G purified IgG, detected with goat anti-mouse IgG; also called C705 mAb
B3: anti-Aβ monoclonal antibody C706 (antibody, V domains shown)
VH: QVQLQQSGPELMKPGASVKISCKATGYTFSTSWIEWIKQRPGHGLEWIGEVLPGSGKSNHNANFKGRATFTADTASNTAYMQLSSLTSEDSAVYYCAREGSNNNALAYWGQGTLVTVSA
VL: QIVLTQSPAIMSASPGEKVTMTCSASSSVSYMHWYQQKSGTSPKRWIYDSSRLASGVPSRFSGGGSGTSYSPTISNMEAEDAATYFCQNWRSSPTFGAGTKLELKR
notes: Tested as protein G purified IgG, detected with goat anti-mouse IgG; also called C706 mAb
B4: anti-Aβ monoclonal antibody C707 (antibody, V domains shown)
VH: EVQLQQSGPDLVKPGASVKTSCKTSGYSFTEYIMSWVRQSHGKSLEWIGSINPNTGGSRYNQKFKGKATLTVDKSSSTAYMEFRSLTSEDSAVYYCARGDFDYWGQGTTLTVSS
VL: DIVMTQAAFSNPVTLGTSASISCRSSKNLLHSNGITYLYWYLQRPGQSPQLLISRVSNLASGVPNRFSGSESGTDFTLRISRVEAEDVGVYYCAQLLELPFTFGSGTKLEIKR
notes: Tested as protein G purified IgG, detected with goat anti-mouse IgG; also called C707 mAb

target: T1, Aβ38 peptide (1-38) (UniProt P05067 672-709); test: BIAcore 3000, antibody amine-coupled to CM5, peptide injected; qualitative
T1 construct: domain: Aβ38 (1-38 peptide); Injected over immobilized antibodies in BIAcore; also called 1-38 peptide
Protocol: (§1) BIAcore 3000, CM5 sensor surface, amine coupling kit, HEPES buffered saline (HBS, 10 mM HEPES 150 mM NaCl, pH7.4 with 3 mM EDTA and 0.005% Tween-20) and 10 mM sodium acetate pH 4.5 were purchased from Biacore, Inc. (Piscataway, N.J.). Anti-Aβmonoclonal antibodies (100 ug/mL) were dialyzed against HBS diluted 1:10 with water. Then, the dialyzed mAb solution was diluted 1:10 into 10 mM sodium acetate pH 4.5. The CM5 sensor surface was equilibrated in the BIAcore 3000 with HBS. Each antibody was immobilized onto a flow cell using the immobilization wizard provided in the operating software and the protocols supplied with the amine coupling kit. The wizard was set to immobilize 2500 RU of antibody. Typically 2000-3000 RU were actually immobilized.
(§2) For each mAb response, data as a function of time were collected (FIG. 46). From the sensorgram, report points are taken 10 seconds prior to the injection of the peptide, 10 seconds prior to the completion of the association phase, and 60 seconds into the dissociation phase. […] These calculations are made possible by assuming that 1 RU=1 pg of peptide (or protein)/mm².
(§3) Due to the potentially multiple aggregation states of the 1-38 and 1-42 peptides, a quantitative analysis of the binding constants is not possible. However, a qualitative analysis is possible. FIG. 47 ranks the mAbs as a function of binding ratio and fraction remaining on the surface after 60 seconds reflecting the stability of the complex. From this analysis C705 and C707 appear to be capable of binding to “monomeric” peptide, where as C701 and C706 requires the peptide to be aggregated to some extent before they can bind.

T1 sequence (P05067 672-709 limits assumed): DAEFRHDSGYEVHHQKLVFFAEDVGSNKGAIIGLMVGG

Binding result, binds:
B1
B2
B3
B4

target: T2, human Aβ1-42 (human, UniProt P05067 672-713); test: as above
T2 construct: domain: Aβ1-42; same polypeptide, aggregation state differs; also called Aβ42; 1-42 peptide
Protocol: as §1, §2, §3

T2 sequence (P05067 672-713 limits assumed): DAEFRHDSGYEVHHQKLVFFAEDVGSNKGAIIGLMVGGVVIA

Binding result, binds:
B1
B2
B3
B4
